Changes are numbered by the printed parent chain.
What was measured:
Test in all cases: BLI
Settings in all cases: both partners purified
fHbp m002281 = target: T1, fHbp m002281 (Neisseria meningitidis, engineered fHbp …, chimera)
T1 chain: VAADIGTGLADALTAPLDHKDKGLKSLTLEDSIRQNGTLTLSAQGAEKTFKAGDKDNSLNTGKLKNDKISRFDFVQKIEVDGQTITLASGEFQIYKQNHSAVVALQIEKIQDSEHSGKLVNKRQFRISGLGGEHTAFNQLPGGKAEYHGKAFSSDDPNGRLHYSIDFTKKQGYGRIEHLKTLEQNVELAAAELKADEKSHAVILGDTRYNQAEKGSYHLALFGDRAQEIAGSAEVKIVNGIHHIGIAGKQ

fHbp m002333 = target: T2, fHbp m002333 (Neisseria meningitidis, engineered fHbp …, chimera)
T2 chain: T1 chain with Q211S, I237T, N239E, G240S

fHbp m002414 = target: T3, fHbp m002414 (Neisseria meningitidis fHbp v3.28, …, chimera)
T3 chain: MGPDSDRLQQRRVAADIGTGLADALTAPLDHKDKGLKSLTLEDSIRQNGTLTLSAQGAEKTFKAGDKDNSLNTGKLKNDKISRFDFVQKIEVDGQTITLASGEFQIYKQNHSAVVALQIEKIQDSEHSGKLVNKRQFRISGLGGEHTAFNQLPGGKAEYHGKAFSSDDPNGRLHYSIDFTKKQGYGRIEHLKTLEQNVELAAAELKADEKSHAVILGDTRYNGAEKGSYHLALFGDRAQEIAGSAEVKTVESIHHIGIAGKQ

fHbp m002417 = target: T4, fHbp m002417 (Neisseria meningitidis fHbp v3.28, …, chimera)
T4 chain: T3 chain with E251N

fHbp m001037 = target: T5, fHbp m001037 (Neisseria meningitidis fHbp v3.28, …, point mutant)
T5 chain: T3 chain with Y221L, N222G, G223Q, S252G

fHbp m001180 = target: T6, fHbp m001180 (Neisseria meningitidis fHbp v3.28-based …, point mutant)
T6 chain: T3 chain with Y221L, N222G, T249S, E251V, S252A

fHbp m001199 = target: T7, fHbp m001199 (Neisseria meningitidis fHbp v3.28-based …, point mutant)
T7 chain: T3 chain with Y221L, N222G, S252G

fHbp m001660 = target: T8, fHbp m001660 (Neisseria meningitidis, fHbp …, point mutant)
T8 chain: T3 chain with Y221L, T249S, S252A

fHbp m001661 = target: T9, fHbp m001661 (Neisseria meningitidis, fHbp …, point mutant)
T9 chain: T3 chain with Y221L, T249S, E251N, S252G

B1: mAb 1E6 (human) (antibody, V domains shown)
VH: EVQLVQSGAEVKKPGSSVKVSCKASGGTVIDYPITWVRQAPGQGLEWVGGFVPLFRTSNYGQKFQGRVTITADKSTSTASMELNSLTSEDTAIYYCARGDTAMGPFDYWGQGTLVTVSS
VL: SYVLTQPPSLSVAPGKTATLTCGGNNIAGKTVHWYQQRPGQAPVLVISYDSDRPSGIPERFSGSNSANTATLTISRVEAGDEADYYCQVWDRNSDHWVFGGGTKLTVL
notes: source: Expi293, purified (MabSelect SuRe, SEC); copies: 2 + 2
**Q.** B1 was tested. Which Kd (fHbp m002281) did it give?
**A.** 0.217 nM

**Q.** And the koff (fHbp m002281)?
**A.** 0.0001 s⁻¹

**Q.** And the kon (fHbp m002281)?
**A.** 462500 ± 3370 M⁻¹ s⁻¹

**Q.** And the Kd (fHbp m002333)?
**A.** 0.0267 nM

**Q.** And the koff (fHbp m002333)?
**A.** 6.18e-06 s⁻¹

**Q.** What about the kon (fHbp m002333) of the same binder?
**A.** 231300 ± 2110 M⁻¹ s⁻¹

**Q.** And the Kd (fHbp m002414)?
**A.** 1.09 nM

**Q.** And the koff (fHbp m002414)?
**A.** 0.000223 s⁻¹

**Q.** And the kon (fHbp m002414)?
**A.** 205200 ± 950 M⁻¹ s⁻¹

**Q.** And the Kd (fHbp m002417)?
**A.** 0.502 nM

**Q.** What about the koff (fHbp m002417) of the same binder?
**A.** 0.000179 s⁻¹

**Q.** And the kon (fHbp m002417)?
**A.** 356800 ± 1380 M⁻¹ s⁻¹

**Q.** What about the Kd (fHbp m001037) of the same binder?
**A.** 0.349 nM

**Q.** And the koff (fHbp m001037)?
**A.** 0.000144 s⁻¹

**Q.** What about the kon (fHbp m001037) of the same binder?
**A.** 413700 ± 3870 M⁻¹ s⁻¹

**Q.** What about the Kd (fHbp m001180) of the same binder?
**A.** 0.574 nM

**Q.** What about the koff (fHbp m001180) of the same binder?
**A.** 0.000278 s⁻¹

**Q.** What about the kon (fHbp m001180) of the same binder?
**A.** 485200 ± 1980 M⁻¹ s⁻¹

**Q.** And the Kd (fHbp m001199)?
**A.** 0.329 nM

**Q.** What about the koff (fHbp m001199) of the same binder?
**A.** 0.000132 s⁻¹

**Q.** What about the kon (fHbp m001199) of the same binder?
**A.** 400500 ± 3250 M⁻¹ s⁻¹

**Q.** What about the Kd (fHbp m001660) of the same binder?
**A.** 0.706 nM

**Q.** What about the koff (fHbp m001660) of the same binder?
**A.** 0.000209 s⁻¹

**Q.** And the kon (fHbp m001660)?
**A.** 296000 ± 3450 M⁻¹ s⁻¹

**Q.** What about the Kd (fHbp m001661) of the same binder?
**A.** 0.678 nM

**Q.** What about the koff (fHbp m001661) of the same binder?
**A.** 0.000193 s⁻¹

**Q.** What about the kon (fHbp m001661) of the same binder?
**A.** 285300 ± 2180 M⁻¹ s⁻¹

B2: chimeric antibody h12C1 (antibody, V domains shown)
VH: QVQLQESGPELVKPGASVKISCKASGYSFSDYNMSWVKQSNGKSLEWIGIIDPKYGTINYNQKFKGKATLTVDQASSTAYMQLNSLTSEDSAVYYCVRDYYGSSYFDYWGQGTTLTVSS
VL: DIVLTQSPSSIYASLGERVTLTCKASQDIHNYLNWFQQKPGKSPKTLIYRANRLVDGVPSRFSGGGSGQDYSLTISSLEFEDIGIYYCLQYDEFPPTFGGGTRLEIK
notes: also called humanized 12C1; source: Expi293, purified (MabSelect SuRe, SEC); copies: 2 + 2
**Q.** Which results are given for B2?
**A.** Kd (fHbp m002281): 34.9 nM; koff (fHbp m002281): 0.0105 s⁻¹; kon (fHbp m002281): 300000 ± 6700 M⁻¹ s⁻¹; Kd (fHbp m002333): 166 nM; koff (fHbp m002333): 0.01686 ± 0.000166 s⁻¹; kon (fHbp m002333): 102000 ± 4590 M⁻¹ s⁻¹; Kd (fHbp m002414): 66.4 nM; koff (fHbp m002414): 0.00858 s⁻¹; kon (fHbp m002414): 129000 ± 5630 M⁻¹ s⁻¹; Kd (fHbp m002417): 95.7 nM; koff (fHbp m002417): 0.00962 s⁻¹; kon (fHbp m002417): 101000 ± 1890 M⁻¹ s⁻¹; Kd (fHbp m001037): 0.893 nM; koff (fHbp m001037): 0.000269 s⁻¹; kon (fHbp m001037): 300900 ± 2650 M⁻¹ s⁻¹; Kd (fHbp m001180): 69.9 nM; koff (fHbp m001180): 0.0158 s⁻¹; kon (fHbp m001180): 227000 ± 3250 M⁻¹ s⁻¹; Kd (fHbp m001199): 25.1 nM; koff (fHbp m001199): 0.0095 s⁻¹; kon (fHbp m001199): 378900 ± 3300 M⁻¹ s⁻¹; Kd (fHbp m001660): 139 nM; koff (fHbp m001660): 0.0649 ± 0.00238 s⁻¹; kon (fHbp m001660): 466000 ± 71500 M⁻¹ s⁻¹; Kd (fHbp m001661): 167 nM; koff (fHbp m001661): 0.0207 ± 0.000141 s⁻¹; kon (fHbp m001661): 124000 ± 4490 M⁻¹ s⁻¹

— article PMC12319226 (Frontiers in Bioinformatics, 2025)
